According to US8299023 (Hoffmann-La Roche, dated 2012):
Numbered stars: 1 amine (or outer) side, 2 acyl side, 3 side chain; on linkers, the order of the positions; unused ones are H or OH. Square brackets hold non-standard residues; d marks the D form. Primed or numbered codes have the meaning given here. HomPqa = 3-hydroxy-2-(4-oxo-6-piperazin-1-yl-4H-quinazolin-3-yl)-propionic acid, O=C(C(CO[*:3])n1cnc2ccc(N3CCN([*:1])CC3)cc2c1=O)[*:2]; Pdp = (6-oxo-2-piperazin-1-yl-1,6-dihydropurin-7-yl)-acetic acid, O=C(Cn1cnc2nc(N3CCN([*:1])CC3)[nH]c(=O)c21)[*:2]; Dqa = (6-[1,4]diazepan-1-yl-4-oxo-4H-quinazolin-3-yl)-acetic acid, O=C(Cn1cnc2ccc(N3CCCN([*:1])CC3)cc2c1=O)[*:2]; Pipa = (1-oxo-7-piperazin-1-yl-1H-isoquinolin-2-yl)-acetic acid, O=C(Cn1ccc2ccc(N3CCN([*:1])CC3)cc2c1=O)[*:2]; Appa = (6-Amino-2-piperazin-1-yl-9H-purin-8-yl)-acetic acid, Nc1nc(N2CCN([*:1])CC2)nc2[nH]c(CC(=O)[*:2])nc12; Cip = (5-Piperazin-1-yl-indole-1-yl)-acetic acid, O=C(Cn1ccc2cc(N3CCN([*:1])CC3)ccc21)[*:2]; Cba′ = (4-Aminomethyl-biphenyl-3-yl)-acetic acid, O=C(Cc1cc(-c2ccccc2)ccc1CN[*:1])[*:2]; Bqa = ((1R,4S)-6-2-Aza-bicyclo[2.2.1]hept-5-yl-4-oxo-4H-quinazolin)-acetic acid; Ppa = (2-piperazin-1-yl-purin-7-yl)-acetic acid; NMeR = CN[C@@H](CCCNC(=N)N)C(=O)O

T1: human NPY2 receptor (human, UniProt P49146 1-381)
T1 sequence (looked up): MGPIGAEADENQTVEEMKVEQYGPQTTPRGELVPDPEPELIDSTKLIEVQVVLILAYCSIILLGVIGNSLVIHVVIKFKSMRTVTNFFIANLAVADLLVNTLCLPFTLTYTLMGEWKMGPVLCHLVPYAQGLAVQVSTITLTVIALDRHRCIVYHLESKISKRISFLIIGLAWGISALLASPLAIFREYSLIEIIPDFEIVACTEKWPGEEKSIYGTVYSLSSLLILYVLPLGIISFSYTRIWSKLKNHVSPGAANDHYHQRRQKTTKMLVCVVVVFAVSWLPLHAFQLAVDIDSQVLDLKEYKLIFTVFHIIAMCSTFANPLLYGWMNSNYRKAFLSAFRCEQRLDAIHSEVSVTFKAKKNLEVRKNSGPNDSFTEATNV

T2: Y5R
T2 sequence (Q15761 whole entry, species assumed, looked up): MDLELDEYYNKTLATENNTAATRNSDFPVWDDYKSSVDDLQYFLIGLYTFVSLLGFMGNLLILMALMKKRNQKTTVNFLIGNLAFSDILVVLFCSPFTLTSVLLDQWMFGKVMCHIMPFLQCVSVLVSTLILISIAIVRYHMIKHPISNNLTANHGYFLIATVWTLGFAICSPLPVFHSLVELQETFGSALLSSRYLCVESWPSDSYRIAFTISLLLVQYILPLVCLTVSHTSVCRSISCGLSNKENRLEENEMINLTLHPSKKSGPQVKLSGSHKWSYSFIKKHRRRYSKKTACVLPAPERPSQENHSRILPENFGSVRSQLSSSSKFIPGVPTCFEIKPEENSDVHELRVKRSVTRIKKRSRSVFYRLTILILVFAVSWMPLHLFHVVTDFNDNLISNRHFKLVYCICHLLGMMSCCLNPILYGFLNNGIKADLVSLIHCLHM

B1: Ac-Ile-Lys-Pdp-Arg-His-Tyr-Leu-Asn-Trp-Val-Thr-Arg-Gln-(NMe)Arg-Tyr-NH2 (peptide)
peptide: Ac-IK[Pdp]RHYLNWVTRQ[NMeR]Y-NH2
SMILES: CC[C@H](C)[C@H](NC(C)=O)C(=O)N[C@@H](CCCCN)C(=O)N1CCN(c2nc3ncn(CC(=O)N[C@@H](CCCNC(=N)N)C(=O)N[C@@H](Cc4c[nH]cn4)C(=O)N[C@@H](Cc4ccc(O)cc4)C(=O)N[C@@H](CC(C)C)C(=O)N[C@@H](CC(N)=O)C(=O)N[C@@H](Cc4c[nH]c5ccccc45)C(=O)N[C@H](C(=O)N[C@H](C(=O)N[C@@H](CCCNC(=N)N)C(=O)N[C@@H](CCC(N)=O)C(=O)N(C)[C@@H](CCCNC(=N)N)C(=O)N[C@@H](Cc4ccc(O)cc4)C(N)=O)[C@@H](C)O)C(C)C)c3c(=O)[nH]2)CC1
B2: Ac-Ile-Lys-Cip-Arg-His-Tyr-Leu-Asn-Trp-Val-Thr-Arg-Gln-(NMe)Arg-Tyr-NH2 (peptide)
peptide: Ac-IK[Cip]RHYLNWVTRQ[NMeR]Y-NH2
SMILES: CC[C@H](C)[C@H](NC(C)=O)C(=O)N[C@@H](CCCCN)C(=O)N1CCN(c2ccc3c(ccn3CC(=O)N[C@@H](CCCNC(=N)N)C(=O)N[C@@H](Cc3c[nH]cn3)C(=O)N[C@@H](Cc3ccc(O)cc3)C(=O)N[C@@H](CC(C)C)C(=O)N[C@@H](CC(N)=O)C(=O)N[C@@H](Cc3c[nH]c4ccccc34)C(=O)N[C@H](C(=O)N[C@H](C(=O)N[C@@H](CCCNC(=N)N)C(=O)N[C@@H](CCC(N)=O)C(=O)N(C)[C@@H](CCCNC(=N)N)C(=O)N[C@@H](Cc3ccc(O)cc3)C(N)=O)[C@@H](C)O)C(C)C)c2)CC1
B3: Ac-Ile-Lys-Pipa-Arg-His-Tyr-Leu-Asn-Trp-Val-Thr-Arg-Gln-(NMe)Arg-Tyr-NH2 (peptide)
peptide: Ac-IK[Pipa]RHYLNWVTRQ[NMeR]Y-NH2
SMILES: CC[C@H](C)[C@H](NC(C)=O)C(=O)N[C@@H](CCCCN)C(=O)N1CCN(c2ccc3ccn(CC(=O)N[C@@H](CCCNC(=N)N)C(=O)N[C@@H](Cc4c[nH]cn4)C(=O)N[C@@H](Cc4ccc(O)cc4)C(=O)N[C@@H](CC(C)C)C(=O)N[C@@H](CC(N)=O)C(=O)N[C@@H](Cc4c[nH]c5ccccc45)C(=O)N[C@H](C(=O)N[C@H](C(=O)N[C@@H](CCCNC(=N)N)C(=O)N[C@@H](CCC(N)=O)C(=O)N(C)[C@@H](CCCNC(=N)N)C(=O)N[C@@H](Cc4ccc(O)cc4)C(N)=O)[C@@H](C)O)C(C)C)c(=O)c3c2)CC1

target: T1, human NPY2 receptor; assay: cell-based or functional assay

Binder	Y2R EC50 (nM) FLIRR (Ca flux, FLIPR) [nM]	Y2R EC50 (nM) cAMP [nM]
Ac-IK[Bqa]RHYLNWVTRQ[NMeR]Y-NH2 [Ac-Ile-Lys-Bqa-Arg-His-Tyr-Leu-Asn-Trp-Val-Thr-Arg-Gln-(NMe)Arg-Tyr-NH2]	0.072	0.17
Ac-IK[Ppa]RHYLNWVTRQ[NMeR]Y-NH2 [Ac-Ile-Lys-Ppa-Arg-His-Tyr-Leu-Asn-Trp-Val-Thr-Arg-Gln-(NMe)Arg-Tyr-NH2]	0.45	0.12
B1	0.037	0.24
B2	0.14	0.36
B3	0.045	0.18
Ac-IK[HomPqa]RHYLNWVTRQ[NMeR]Y-NH2 [Ac-Ile-Lys-HomPqa-Arg-His-Tyr-Leu-Asn-Trp-Val-Thr-Arg-Gln-(NMe)Arg-Tyr-NH2]	0.6	4.35
Ac-IK[Cba′]RHYLNWVTRQ[NMeR]Y-NH2 [Ac-Ile-Lys-Cba-Arg-His-Tyr-Leu-Asn-Trp-Val-Thr-Arg-Gln-(NMe)Arg-Tyr-NH2]	0.51	1.97
Ac-IK[Dqa]RHYLNWVTRQ[NMeR]Y-NH2 [Ac-Ile-Lys-Dqa-Arg-His-Tyr-Leu-Asn-Trp-Val-Thr-Arg-Gln-(NMe)Arg-Tyr-NH2]	0.25	0.35
Ac-IK[Appa]RHYLNWVTRQ[NMeR]Y-NH2 [Ac-Ile-Lys-Appa-Arg-His-Tyr-Leu-Asn-Trp-Val-Thr-Arg-Gln-(NMe)Arg-Tyr-NH2]	0.156	0.18

target: Y4R; assay: cell-based or functional assay

Binder	Y4R EC50 (nM) FLIPR [nM]
Ac-IK[Bqa]RHYLNWVTRQ[NMeR]Y-NH2 [Ac-Ile-Lys-Bqa-Arg-His-Tyr-Leu-Asn-Trp-Val-Thr-Arg-Gln-(NMe)Arg-Tyr-NH2]	> 5000
Ac-IK[Ppa]RHYLNWVTRQ[NMeR]Y-NH2 [Ac-Ile-Lys-Ppa-Arg-His-Tyr-Leu-Asn-Trp-Val-Thr-Arg-Gln-(NMe)Arg-Tyr-NH2]	> 5000
B1	> 9000
B2	> 30000
B3	> 5000
Ac-IK[HomPqa]RHYLNWVTRQ[NMeR]Y-NH2 [Ac-Ile-Lys-HomPqa-Arg-His-Tyr-Leu-Asn-Trp-Val-Thr-Arg-Gln-(NMe)Arg-Tyr-NH2]	2790
Ac-IK[Cba′]RHYLNWVTRQ[NMeR]Y-NH2 [Ac-Ile-Lys-Cba-Arg-His-Tyr-Leu-Asn-Trp-Val-Thr-Arg-Gln-(NMe)Arg-Tyr-NH2]	> 30000
Ac-IK[Dqa]RHYLNWVTRQ[NMeR]Y-NH2 [Ac-Ile-Lys-Dqa-Arg-His-Tyr-Leu-Asn-Trp-Val-Thr-Arg-Gln-(NMe)Arg-Tyr-NH2]	> 9000
Ac-IK[Appa]RHYLNWVTRQ[NMeR]Y-NH2 [Ac-Ile-Lys-Appa-Arg-His-Tyr-Leu-Asn-Trp-Val-Thr-Arg-Gln-(NMe)Arg-Tyr-NH2]	> 5000

target: Y1R; assay: cell-based or functional assay
Sequence (P25929 whole entry): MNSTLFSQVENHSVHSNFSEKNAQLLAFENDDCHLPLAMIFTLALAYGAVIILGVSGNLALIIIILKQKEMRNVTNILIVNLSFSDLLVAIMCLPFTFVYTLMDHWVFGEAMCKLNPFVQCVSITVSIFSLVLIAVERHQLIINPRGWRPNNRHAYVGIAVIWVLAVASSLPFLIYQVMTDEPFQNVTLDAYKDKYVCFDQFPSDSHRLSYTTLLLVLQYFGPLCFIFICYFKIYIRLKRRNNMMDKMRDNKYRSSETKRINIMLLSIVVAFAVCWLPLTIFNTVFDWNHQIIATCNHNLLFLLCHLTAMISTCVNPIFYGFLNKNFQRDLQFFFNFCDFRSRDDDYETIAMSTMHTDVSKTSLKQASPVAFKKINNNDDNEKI

Binder	Y1R EC50 (nM) FLIPR [nM]
Ac-IK[Bqa]RHYLNWVTRQ[NMeR]Y-NH2 [Ac-Ile-Lys-Bqa-Arg-His-Tyr-Leu-Asn-Trp-Val-Thr-Arg-Gln-(NMe)Arg-Tyr-NH2]	> 5000
Ac-IK[Ppa]RHYLNWVTRQ[NMeR]Y-NH2 [Ac-Ile-Lys-Ppa-Arg-His-Tyr-Leu-Asn-Trp-Val-Thr-Arg-Gln-(NMe)Arg-Tyr-NH2]	> 5000
B1	> 9000
B2	> 30000
B3	> 5000
Ac-IK[HomPqa]RHYLNWVTRQ[NMeR]Y-NH2 [Ac-Ile-Lys-HomPqa-Arg-His-Tyr-Leu-Asn-Trp-Val-Thr-Arg-Gln-(NMe)Arg-Tyr-NH2]	> 9000
Ac-IK[Cba′]RHYLNWVTRQ[NMeR]Y-NH2 [Ac-Ile-Lys-Cba-Arg-His-Tyr-Leu-Asn-Trp-Val-Thr-Arg-Gln-(NMe)Arg-Tyr-NH2]	> 30000
Ac-IK[Dqa]RHYLNWVTRQ[NMeR]Y-NH2 [Ac-Ile-Lys-Dqa-Arg-His-Tyr-Leu-Asn-Trp-Val-Thr-Arg-Gln-(NMe)Arg-Tyr-NH2]	> 9000
Ac-IK[Appa]RHYLNWVTRQ[NMeR]Y-NH2 [Ac-Ile-Lys-Appa-Arg-His-Tyr-Leu-Asn-Trp-Val-Thr-Arg-Gln-(NMe)Arg-Tyr-NH2]	> 5000

target: T2, Y5R; assay: cell-based or functional assay

Binder	Y5R EC50 (nM) FLIPR [nM]
Ac-IK[Bqa]RHYLNWVTRQ[NMeR]Y-NH2 [Ac-Ile-Lys-Bqa-Arg-His-Tyr-Leu-Asn-Trp-Val-Thr-Arg-Gln-(NMe)Arg-Tyr-NH2]	2870
Ac-IK[Ppa]RHYLNWVTRQ[NMeR]Y-NH2 [Ac-Ile-Lys-Ppa-Arg-His-Tyr-Leu-Asn-Trp-Val-Thr-Arg-Gln-(NMe)Arg-Tyr-NH2]	1100
B1	> 9000
B2	10700
B3	2340
Ac-IK[HomPqa]RHYLNWVTRQ[NMeR]Y-NH2 [Ac-Ile-Lys-HomPqa-Arg-His-Tyr-Leu-Asn-Trp-Val-Thr-Arg-Gln-(NMe)Arg-Tyr-NH2]	4940
Ac-IK[Cba′]RHYLNWVTRQ[NMeR]Y-NH2 [Ac-Ile-Lys-Cba-Arg-His-Tyr-Leu-Asn-Trp-Val-Thr-Arg-Gln-(NMe)Arg-Tyr-NH2]	> 30000
Ac-IK[Dqa]RHYLNWVTRQ[NMeR]Y-NH2 [Ac-Ile-Lys-Dqa-Arg-His-Tyr-Leu-Asn-Trp-Val-Thr-Arg-Gln-(NMe)Arg-Tyr-NH2]	6030
Ac-IK[Appa]RHYLNWVTRQ[NMeR]Y-NH2 [Ac-Ile-Lys-Appa-Arg-His-Tyr-Leu-Asn-Trp-Val-Thr-Arg-Gln-(NMe)Arg-Tyr-NH2]	3300
